Test results as given in patent US20160287682.

Tested on: Notch1, overexpressed in 293T cells

Adamts1, V5 tagged, overexpressed in 293T cells
S2 cleavage of Notch1: Adamts1 blocks S2 cleavage of Notch1
